Data on one molecule can be found in patent US20240417475A1 (AFFIMED, published 2024).

The experiment deals with CD16A endogenously expressed on primary human NK cells (human, UniProt P08637 17-254). Description: flow cytometry on primary human NK cells, with 10 mg/mL polyclonal human IgG as competitor, range of 4 experiments. The procedure: 4° C., and resuspended in 50 μL/well of diluted antibody constructs. […] After 40-50 minutes' incubation at 37° C., cells were washed 3-times with ice-cold FACS buffer. […] After the final incubation step, cells were washed 2-times with ice-cold FACS buffer, and the cell pellet was resuspended in 50 μL FACS buffer. Fluorescence intensity of >1×10⁴ viable cells was analyzed by flow cytometry and the median fluorescence intensity (MFI) was determined for each sample.
Sequence of CD16A endogenously expressed on primary human NK cells (P08637 17-254 limits assumed): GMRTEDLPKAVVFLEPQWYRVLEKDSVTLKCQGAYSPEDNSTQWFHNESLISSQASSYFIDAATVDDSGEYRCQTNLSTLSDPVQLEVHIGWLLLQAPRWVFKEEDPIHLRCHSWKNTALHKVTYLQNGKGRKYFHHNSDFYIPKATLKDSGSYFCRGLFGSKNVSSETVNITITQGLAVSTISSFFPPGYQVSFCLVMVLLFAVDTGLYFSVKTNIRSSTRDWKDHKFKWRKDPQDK
Equilibrium dissociation constants (KD) of antibody binding were calculated by plotting MFI values and fitting a non-linear regression model for one-site binding to hyperbolic dose-response curves using GraphPad Prism.

B1: scFv-IgAb_387 (FOLR1_1×CD16a3) (bispecific antibody)
heavy: EVQLVESGGGVVQPGRSLRLSCSASGFTFSGYGLSWVRQAPGKGLEWVAMISSGGSYTYYADSVKGRFAISRDNAKNTLFLQMDSLRPEDTGVYFCARHGDDPAWFAYWGQGTPVTVSSASTKGPSVFPLAPSSKSTSGGTAALGCLVKDYFPEPVTVSWNSGALTSGVHTFPAVLQSSGLYSLSSVVTVPSSSLGTQTYICNVNHKPSNTKVDKKVEPKSCDKTHTCPPCPAPEFEGGPSVFLFPPKPKDTLMISRTPEVTCVVVAVSHEDPEVKFNWYVDGVEVHNAKTKPREEQYNSTYRVVSVLTVLHQDWLNGKEYKCKVSNKALPAPIEKTISKAKGQPREPQVYTLPPSREEMTKNQVSLTCLVKGFYPSDIAVEWESNGQPENNYKTTPPVLDSDGSFFLYSKLTVDKSRWQQGNVFSCSVMHEALHNHYTQKSLSLSPGGGGGSGGGGSGGGGSGGGGSGGGGSGGGGSSYELTQPLSVSVALGQTARITCGGNNIGSKSVHWYQQKPGQAPVLVIYQDKKRPSGIPERFSGSNSGNTATLTISRAQAGDEADYYCQVWDDYIVLFGCGTKLTVLGGSGGSGGSGGSGGSGGSGGSQVQLVQSGAEVKKPGASVKVSCKASGYTFTNYYMQWVRQAPGQCLEWMGIINPSGGVTSYAQKFQGRVTMTRDTSTSTVYMELSSLRSEDTAVYYCARGSAYYYDFADYWGQGTLVTVSSG
light: DIQLTQSPSSLSASVGDRVTITCSVSSSISSNNLHWYQQKPGKAPKPWIYGTSNLASGVPSRFSGSGSGTDYTFTISSLQPEDIATYYCQQWSSYPYMYTFGQGTKVEIKRTVAAPSVFIFPPSDEQLKSGTASVVCLLNNFYPREAKVQWKVDNALQSGNSQESVTEQDSKDSTYSLSSTLTLSKADYEKHKVYACEVTHQGLSSPVTKSFNRGEC
modifications: Chemically biotinylated (NHS-PEG4-biotin) in Example 22 only.
notes: Tetravalent bispecific scFv-IgAb; also called FOLR1×CD16A scFv-IgAb_387; FOLR1/CD16A scFv-IgAb_387; copies: 2 + 2
The term Kd denotes the concentration at which binding is half-saturated. Lower therefore signals a tighter complex. In turn, B1 came in with a Kd of 14.3 to 36.4 nM.
